In patent US20250197490A1 (HBM ALPHA THERAPEUTICS, published 2025):
Read-outs that look alike come from different tables or passages of the source. Each block holds one binder with its values, some of them ahead of it.

Experiments:
[1] = biological target: T1, biotinylated CRH (human and mouse, UniProt P01143 145-185 (rat entry), not fully specified; biotin; which end is not stated for the result (NT-biotin and CT-biotin forms were used)); experiment: ELISA, CRH (NT biotin)
T1 construct: also called biotin-CRH; CRH (NT biotin)
T1 peptide: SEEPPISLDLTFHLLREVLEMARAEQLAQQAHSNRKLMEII

[2] = biological target: T1, biotinylated CRH; experiment: ELISA, CRH (NT biotin)
[3] = biological target: T1, biotinylated CRH; experiment: ELISA, CRH (CT biotin)
Description: (§1) Streptavidin (Thermo, Cat: 21125) was diluted in PBS to a concentration of 2 μg/ml. 100 μl of diluted streptavidin was added per well to ELISA microplates, and the plates were incubated overnight at 4° C. […] Subsequently, plates were washed and incubated with HRP-conjugated goat anti-human IgG (H+L) antibody (Jackson, Cat: 109-035-088) at 37° C. for 1 hour. 100 μL of 3,3′,5,5′-tetramethylbenzidine (TMB) substrate (Biopanda, Cat: TMB-S-003) was added, and the plates were incubated at room temperature for 15 minutes. 100 μL of ELISA stopping solution (Solarbio, Cat #: C1058) was added to terminate the reaction, and the optical density at 450 nm (OD450 nm) was determined by an ELISA plate reader (Molecular Devices, Spectra max 384 plus).

[4] = biological target: T1, biotinylated CRH; experiment: ELISA, CRH (NT biotin)
Description: as §1

[5] = biological target: T2, human UCN3 peptide, biotinylated (human, UniProt Q969E3 120-157, biotin at N- or C-terminus); experiment: ELISA, hUCN3 (NT biotin) and (CT biotin)
T2 construct: also called hUCN3 (NT Biotin); hUCN3 (CT Biotin)
T2 peptide (looked up): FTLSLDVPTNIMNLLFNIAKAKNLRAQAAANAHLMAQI
Description: (§2) Streptavidin (Thermo, Cat: 21125) was diluted in PBS with a concentration of 2 μg/mL. 100 μL of diluted streptavidin was added per well to ELISA microplates, and the plates were incubated overnight at 4° C. Plates were blocked with ELISA blocking solution (containing 2% w/v BSA, 0.05% (v/v) Tween-20, pH 7.4 PBS buffer) at 37° C. for 1 hour, and then incubated with either 1 μg/mL hUCN1 (NT Biotin), hUCN1 (CT Biotin), hUCN2 (NT Biotin), hUCN2 (CT Biotin), hUCN3 (NT Biotin), or hUCN3 (CT Biotin) for 1 hour at 37° C. […] Plates were subsequently washed and incubated with HRP-conjugated goat anti-human IgG (H+L) antibody (Jackson, Cat: 109-035-088) at 37° C. for 1 hour. 100 μl of TMB Substrate (Biopanda, Cat: TMB-S-003) was added, and the plates were incubated at room temperature for 15 minutes. 100 μL of ELISA stopping solution (Solarbio, Cat #: C1058) was then added to terminate the reaction, and the OD450 nm was determined by an ELISA plate reader (Molecular Devices, Spectra max 384 plus).

[6] = biological target: T1, biotinylated CRH; experiment: Octet in-tandem competition on captured CRH; row = 1st mAb; competitor (2nd mAb) PR006669
Description: (§3) SA sensors (Fortebio, Cat #18-5019) were hydrated in running buffer for 10 mins.

[7] = biological target: T3, human UCN2 peptide, biotinylated (human, UniProt Q96RP3 72-109, limits assumed, biotin at N- or C-terminus); experiment: ELISA, hUCN2 (NT biotin) and (CT biotin)
T3 construct: also called hUCN2 (NT Biotin); hUCN2 (CT Biotin)
T3 peptide (looked up): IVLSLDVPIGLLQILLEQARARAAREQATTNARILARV
Description: as §2

[8] = biological target: T4, human UCN1 peptide, biotinylated (human, UniProt P55089 83-122, biotin at N- or C-terminus); experiment: ELISA, hUCN1 (NT biotin)
T4 construct: also called hUCN1 (NT Biotin); hUCN1 (CT Biotin)
T4 peptide (looked up): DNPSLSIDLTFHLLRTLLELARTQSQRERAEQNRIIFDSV
Description: as §1

[9] = biological target: T4, human UCN1 peptide, biotinylated; experiment: ELISA, hUCN1 (CT biotin)
Description: as §1

[10] = biological target: T1, biotinylated CRH; experiment: ELISA, CRH (NT biotin)
Description: as §1
These potential PTMs were mutated individually either in HCDR2 alone, in LCDR1 alone, or in various combinations of mutations, as detailed in Table 3. […] Most ΔPTM variants retained functional activities.

[11] = biological target: T5, corticotropin-releasing hormone (CRH) peptide (human and mouse, UniProt P01143 145-185 (rat entry), not fully specified); experiment: cell-based or functional assay
T5 peptide: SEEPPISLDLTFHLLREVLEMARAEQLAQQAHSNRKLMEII

[12] = biological target: T6, CRH (Central Region, CT Biotin) (C-terminal K-Biotin); experiment: ELISA, CRH central region peptide (CT biotin)
T6 construct: also called Central CRH
T6 peptide: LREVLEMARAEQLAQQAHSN
Description: as §1

[13] = biological target: T4, human UCN1 peptide, biotinylated; experiment: ELISA, hUCN1 (NT biotin) and (CT biotin), mAb at 100 and 10 nM
Description: as §2

[14] = biological target: T5, corticotropin-releasing hormone (CRH) …; experiment: cell-based or functional assay
[15] = biological target: T7, CRH (Central Region, NT Biotin) (N-terminal Biotin-K; C-terminal NH2); experiment: ELISA, CRH central region peptide (NT biotin)
T7 construct: also called Central CRH
T7 peptide: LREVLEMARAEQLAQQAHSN
Description: as §1

[16] = biological target: T1, biotinylated CRH; experiment: Octet in-tandem competition on captured CRH; row = 1st mAb; competitor (2nd mAb) PR302341-34
Description: as §3

[17] = biological target: T8, CRH (C-Terminal Region, NT Biotin) (N-terminal Biotin-K; C-terminal NH2); experiment: ELISA, CRH C-terminal region peptide (NT biotin)
T8 construct: central region plus C-terminal region of CRH; also called C-Terminal CRH; C-Ter-CRH
T8 peptide: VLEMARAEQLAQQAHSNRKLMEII
Description: as §1

[18] = biological target: T9, N-Terminal CRH peptide (N-terminal region plus central region, CT biotin) (human and mouse, C-terminal K-Biotin); experiment: ELISA, N-Ter-CRH (CT-biotin) on streptavidin
T9 construct: also called N-Ter-CRH
T9 peptide: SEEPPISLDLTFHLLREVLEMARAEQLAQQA
Description: as §1

[19] = biological target: T1, biotinylated CRH; experiment: ELISA, CRH (CT biotin)

B1: PR301788 (antibody, human IgG1, kappa, V domains shown)
VH: EMKLEESGGGLVQPGGSMKLSCVASGFTFSNYWMNWVRQSPEKGLEWVAEIRLKSNNYATHYAESVKGRFTISRDDSKSSVYLQMNNLRAEDTGIYYCTIGTLVYWGQGTLVTVSA
VL: DIVLTQSPASLAVSLGQRATISCRASQSVSTSTYNYMHWFQQKPGQPPKLLIKFASNLESGVPARFSGSGSGTDFTLNIHPVEEEDTATFYCQHSWEIPYTFGGGTKLEIKR
binding result [1]: binds

B3: PR303394 (antibody, human IgG1, kappa, V domains shown)
VH: EVQLQQSGPELVKPGVSMKISCKASGYSFTDSTMNWVKQSHGKNLEWIGLIHPDNGGTIYNQKFKGKATLTVHKSSSTAYMELLSLTSEDSAVYYCANGFAYWGQGTLVTVSA
VL: DVVMTQTPLSLPVSLGDQASISCRSSQSLLHSNGNTYLHWYLQKPGQSPELLIYKVSNRFSGVPDRFSGSGSGTDFTLKISRVEAEDLGVYFCSQSTHVPLTFGAGTKLELKR
notes: also called analog of CTRND05
EC50 (read off the curve) [3]: ~30 pM | EC50 (read off the curve) [4]: ~30 pM | binding result [5]: no binding (tested: 100 nM) | % Inhibition [6]: 90% | binding result [7]: no binding (tested: 100 nM) | EC50 (read off the curve) [8]: ~20 pM | EC50 (read off the curve) [9]: ~20 pM

B4: PR005656 (antibody, human IgG1, kappa, V domains shown)
VH: EVQLVESGGVLVQPGGSLRLSCAASGFTFSSYWMTWVRQAPGKGLEWVANIKQEGSEKYYVDSVKGRFTISRDNAKNSLFLQMNSLRAEDTAVYYCARTLIFDYWGQGTLVTVSS
VL: DIVMTQSPLSLPVTPGEPASISCRSSQSLLHSTGYNSLEWYLQKPGQSPQLLIYLGSNRASGVPDRFSGSGSGTDFTLKISRVEAEDVGIYYCMQTLQTPITFGQGTRLEIKR
EC50 (read off the curve) [10]: ~30 pM | IC50 (read off the curve), CRH-induced mCRHR1 luciferase reporter [11]: ~4000 pM

B5: PR005660 (antibody, human IgG1, kappa, V domains shown)
VH: EVQLVESGGVLVQPGGSLRLSCAASGFTFSSYWMTWVRQAPGKGLEWVANIKQEGSEKYYVDSVKGRFTISRDNAKNSLFLQMNSLRAEDTAVYYCARTLIFDYWGQGTLVTVSS
VL: DIVMTQSPLSLPVTPGEPASISCRSSQSLLHSTGYQSLEWYLQKPGQSPQLLIYLGSNRASGVPDRFSGSGSGTDFTLKISRVEAEDVGIYYCMQTLQTPITFGQGTRLEIKR
EC50 (read off the curve) [3]: ~50 pM | EC50 (read off the curve) [4]: ~30 pM | binding result [12]: no binding (tested: 100 nM) | binding result [5]: no binding (tested: 100 nM) | EC50 (read off the curve) [10]: ~30 pM | binding result [13]: binds | IC50 in the hCRHR1 reporter assay [14]: ~10000 pM | binding result [15]: no binding (tested: 100 nM) | % Inhibition [16]: 90% | binding result [7]: no binding (tested: 100 nM) | binding result [17]: no binding (tested: 100 nM) | EC50 [18]: 76 pM

B8: PR301612 (antibody, human IgG1, kappa, V domains shown)
VH: EVKLEESGGGLVQPGGSIKLSCVASGFTFSGAWMAWVRQSPEKGLEWVAEIKNKANNHATFYAESVKGRFIISRDDSKSSVYLQMNSLRAEDTGTYYCTLPDVWGTGTTVTVSS
VL: QIVLTQSPAIMSASPGERVTISCSASSSVSNMYWYLQKPGSSPKPWIYRTSNLASGVPARFSGSGSGTSYSLTISSMEAEDVATYYCQQYHSFPRTFGGGTKLEIKR
EC50 (read off the curve) [19]: ~30 pM

Next, values leading:

binding result [2]: binds
B2: PR301803 (antibody, human IgG1, kappa, V domains shown)
VH: EVKLEESGGGLVQPGGSMKLSCVASGFTFNNYWMNWVRQSPEKGLEWVAEIRLKSNNYATHYAESLKGRFTISRDDSKSSVYLQMNNLRAEDTGIYYCTVGTLVYWGQGTLVTVSA
VL: DIVLTQSPASLVVSLGQRATISCRASQSVSTSTYNYMHWYQQKPGQPPKLLIKFASNLESGVPARFSGSGSGTDFTLNIHPVEEEDTATFYCQHSWEIPYTFGGGTKLEIKR

binding result [1]: binds
B6: PR301806 (antibody, human IgG1, kappa, V domains shown)
VH: QVQLQQPGAELVKPGTSVKMSCKASGYTFTSYWMHWVKQRPGQGLEWIGDIYPGSDSTNYNEKFKSKASLTVDTSSSTAYMQLSSLTSEDSAVYYCARSITTTTFWYFDVWGAGTTVTVSS
VL: DVLMTQTPLSLPVSLGDQASISCRSSQSFVYSNGNTYLQWYLQKPGQSPKLLIYKVSNRFSGVPDRFSGSGSGTDFTLKISRVEAEDLGVYYCFQGSHVPPTFGAGTKLELKR

binding result [2]: binds
B7: PR301780 (antibody, human IgG1, kappa, V domains shown)
VH: QIQLVQSGPELKKPGETVKISCKASGYTFTNFGLNWVKQAPGKGLKWMGWINTYTGEPTYTDDFKGRFAFSLETSASTAYLQINNLKKEDTATYFCARGTYRDDGAWFAYWGQGTLVTVSA
VL: DVLMTQTPLSLPVSLGDQASISCRSSQIIVHSNGNTYLEWYLQKPGQSPKLLIYKVSNRFSGVPDRFSGSGSGTDFTLKISRVEAEDLGVYHCFQGSHVPWTFGGGTKLEIKR
